± gives the standard deviation.
Assay: protein stability index of a GFP-peptide fusion (GPS, HEK-293T) (PSI 1-6); higher = more stable
[1] = treatment: DMSO, c terminus: a fixed tail appended
[2] = treatment: MLN4924 1 uM, 8 h, c terminus: a fixed tail appended
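Note: 24-mer peptide tiles fused after GFP, lentivirally expressed, FACS-sorted into six equal bins by GFP/DsRed ratio, decoded by Illumina sequencing, PSI is the read-weighted mean bin number.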

## EAAGESLEEEIRRKQILLRGKLKK [ZC2HC1C]
[1]
  protein stability index: 4.87 ± 0.33
[2]
  protein stability index: 4.59 ± 0.35

## TSPAKDSLSFEDFLDLLSVFSDTA [CIB1]
[1]
  protein stability index: 2.28 ± 0.1
[2]
  protein stability index: 2.45 ± 0.27

## QASEREAPSIEQRLQEVRESIRRA [FCHSD1]
[1]
  protein stability index: 5.06 ± 0.35
[2]
  protein stability index: 5 ± 0.31

## PAAGRELPPDMTVVPGDHLLEPEV [KCNA3]
[1]
  protein stability index: 5.3 ± 0.15
[2]
  protein stability index: 5.31 ± 0.08

## EDKIFPVPEEPPVKKLMRTSTPPP [ZBED1]
[1]
  protein stability index: 4.8 ± 0.27
[2]
  protein stability index: 4.61 ± 0.34

## ERNNIAVRKSRDKAKRRNQEMQQK [CEBPD]
[1]
  protein stability index: 3.79 ± 0.9
[2]
  protein stability index: 3.31 ± 0.37

## MNVMLKSSPVDLVTATDQKVEKML [IMPA1]
[1]
  protein stability index: 3.832 ± 0.018
[2]
  protein stability index: 3.96 ± 0.49

## KETAHDLDVKSPPEPRSEVVPARL [RIPK4]
[1]
  protein stability index: 4.8 ± 1.2
[2]
  protein stability index: 4.88 ± 0.86

## ESRMRIESLSSQLSNLQKESRACL [LMNB1]
[1]
  protein stability index: 3.63 ± 0.34
[2]
  protein stability index: 3.94 ± 0.12

## IFQEKHVNLLHIESRKSKRRNSEF [TPH1]
[1]
  protein stability index: 3.06 ± 0.25
[2]
  protein stability index: 3.27 ± 0.28

## CEEEVFPLAMNYLDRFLSLEPVKK [CCND1]
[1]
  protein stability index: 3.36 ± 0.16
[2]
  protein stability index: 3.3 ± 0.28

## HMVKISGGPHISYPPLHEWVLREG [MAGEA3]
[1]
  protein stability index: 2.29 ± 0.34
[2]
  protein stability index: 2.43 ± 0.35

## DTNSIAKAIKARGEVIHCKLRAMK [STX11]
[1]
  protein stability index: 2.82 ± 0.29
[2]
  protein stability index: 2.89 ± 0.23

## THPVTNTTEKQRLVKKLQDSVLER [GOLPH3L]
[1]
  protein stability index: 4.13 ± 0.2
[2]
  protein stability index: 4.39 ± 0.13

## LCKLFPFLQKSSVGITVLNLCALS [EDNRA]
[1]
  protein stability index: 2.47 ± 0.18
[2]
  protein stability index: 2.72 ± 0.57

## HILAAEQLSRDSTLGGKAFHITND [NSDHL]
[1]
  protein stability index: 3.39 ± 0.1
[2]
  protein stability index: 3.49 ± 0.28

## DYEKMFGTKCHGCDFKIDAGDRFL [PDLIM7]
[1]
  protein stability index: 2.92 ± 0.31
[2]
  protein stability index: 2.96 ± 0.66

## LILSREASWAKPHYEFNLSRMKFR [LCOR]
[1]
  protein stability index: 2.27 ± 0.18
[2]
  protein stability index: 2.11 ± 0.28

## FSGHFLCTSSWDKNLKIWNVHTGE [WDR88]
[1]
  protein stability index: 2.71 ± 0.71
[2]
  protein stability index: 2.55 ± 0.15

## YIGTHEYPHFSHRPSTLQAASTPQ [OAS1]
[1]
  protein stability index: 2.61 ± 0.56
[2]
  protein stability index: 3.16 ± 0.48

## EDLQSIIYKLEEHEEFFPAFQAFT [CEP70]
[1]
  protein stability index: 2.38 ± 0.18
[2]
  protein stability index: 2.17 ± 0.31

## ITTIGYGHAAPGTDAGKAFCMFYA [KCNK9]
[1]
  protein stability index: 2.9 ± 0.49
[2]
  protein stability index: 2.8 ± 0.56

## LLQLPDTKVGSFMIRESETKKGFY [SLA]
[1]
  protein stability index: 2.75 ± 0.25
[2]
  protein stability index: 2.95 ± 0.047

## EILSSRASYSGKAADVWSLGVALF [TRIB3]
[1]
  protein stability index: 2.52 ± 0.52
[2]
  protein stability index: 2.42 ± 0.39

## SIQVRRKPQHGVCSQLLGNYRCL [SERPINB9P1]
treatment: DMSO, c terminus: native
  protein stability index: 2.69 ± 0.51
treatment: MLN4924 1 uM, 8 h, c terminus: native
  protein stability index: 3.09 ± 0.18

## KLGPALKIYEYHVKPLQTKHLKNN [SAMD13]
[1]
  protein stability index: 2.46 ± 0.14
[2]
  protein stability index: 2.54 ± 0.22

## ESSILGTDIDLQTIDNDIVSMEIF [M1AP]
[1]
  protein stability index: 3.86 ± 0.34
[2]
  protein stability index: 3.74 ± 0.35

## SLDTLLEAVESRGGVPGGCVLVPR [SMAD6]
[1]
  protein stability index: 3.23 ± 0.17
[2]
  protein stability index: 3.23 ± 0.25

## PASFPTWGCDLGVVTRVVTGVYPR [BRF1]
[1]
  protein stability index: 2.37 ± 0.16
[2]
  protein stability index: 2.39 ± 0.3

## RIPGAWSCAWSLNIQANNCFSTGL [DCAF4]
[1]
  protein stability index: 2.76 ± 0.94
[2]
  protein stability index: 2.69 ± 0.6

## MYGVDLHHAKDSEGVEIMLGVCAS [EPB41L3]
[1]
  protein stability index: 2.71 ± 0.3
[2]
  protein stability index: 2.77 ± 0.51

## AKLVPMGFTTATEFHQRRSEIIQI [RAD51]
[1]
  protein stability index: 2.56 ± 0.6
[2]
  protein stability index: 1.98 ± 0.12

## PRHPIRALVGDEVELPCRISPGKN [MOG]
[1]
  protein stability index: 4.62 ± 0.17
[2]
  protein stability index: 4.72 ± 0.21

## FSNTSELAKDFIRRLLVKDPKRRM [DAPK3]
[1]
  protein stability index: 2.36 ± 0.19
[2]
  protein stability index: 2.16 ± 0.44

## AKAADSPTRNDLESGLGHFSLRVH
[1]
  protein stability index: 3.19 ± 0.38
[2]
  protein stability index: 3.42 ± 0.48

## LRRIRAESGTKGLFAGFLPRIIKA [SLC25A39]
[1]
  protein stability index: 2.05 ± 0.27
[2]
  protein stability index: 2.15 ± 0.33

## LPTITSELSGAPRCHTVPCAGSTA [PXN]
[1]
  protein stability index: 3.86 ± 0.34
[2]
  protein stability index: 3.83 ± 0.27

## FPNWAMALLITLIVVATLPIPVVF [SLC6A17]
[1]
  protein stability index: 3.43 ± 0.88
[2]
  protein stability index: 3.04 ± 0.33

## HSLDLNISEKLTLLPTLYEIHSKT [RNF180]
[1]
  protein stability index: 2.34 ± 0.26
[2]
  protein stability index: 2.46 ± 0.42

## YLLQFARKPVEAESVEGVVRILLE [INTS4]
[1]
  protein stability index: 2.19 ± 0.24
[2]
  protein stability index: 2.27 ± 0.25

## SAMAENILAAACESETRKAAKRMR [NOL4L]
[1]
  protein stability index: 4.32 ± 0.2
[2]
  protein stability index: 4.69 ± 0.46

## LEVEREAEKKREAKQRAKEAQERE [LRRC59]
[1]
  protein stability index: 5.45 ± 0.42
[2]
  protein stability index: 5.63 ± 0.19

## SNAERGTAEPFPRLHNLYSTPRCA [CBY2]
[1]
  protein stability index: 3.95 ± 0.26
[2]
  protein stability index: 4.03 ± 0.14

## RSDGKTCAKLDSCALGDHGCEHSC [MATN2]
[1]
  protein stability index: 4.54 ± 0.31
[2]
  protein stability index: 4.59 ± 0.32

## AASLVTMGIVNLNIHMNFTHICRS [SLC2A12]
[1]
  protein stability index: 3.46 ± 0.27
[2]
  protein stability index: 3.16 ± 0.21
